Experimental data as given in patent publication US20140336127A1, “Stabilized Peptide Helices For Inhibiting Dimerization Of Chemokine C Motif Receptor 2 (CCR2)” (Yissum Research Development Company of the Hebrew …, priority 2012, published 2014).
Starred links: 1 amine or outer side, 2 acyl side, 3 side chain; linkers in the order of their positions; H or OH if unused. Positions of bridges follow the written chain, without caps; N, C: chain ends. Non-standard residues stand in square brackets, D forms with d. Residues, ends and D or L forms follow the SMILES beside them. No end group written: not given here. BU = not defined here; CO = O=C([*:1])[*:2]

Assays:
[1] = tested on: intestinal peptidases; experiment: metabolic stability BBMV assay (degradation by intestinal peptidases); type: in vitro ADME, rat; details: 37° C.
Description: The enzymatic reaction is performed similar to what described in Ovadia et al. (2009, Bioorg Med Chem 18, 580-589): 2 mM stock solutions of the tested compounds are diluted with serum or purified brush border membrane vesicles (BBMVs) solution to a final concentration of 0.5 mM. During incubation at 37° C. samples are taken for a period of 90 minutes. The enzymatic reaction is stopped by adding 1:1 v/v of ice cold acetonitrile and centrifuge (4000 g, 10 min) before analysis.
The BBMVs are prepared from combined duodenum, jejunum, and upper ileum (male Wistar rats) by a Ca++ precipitation method (Gante, J., Angew Chem Int Edit 1994, 33, (17), 1699-1720; Hess et al., ibid). Purification of the BBMVs is assayed using GGT, LAP and alkaline phosphatase as membrane enzyme markers.
M3D-1 was tested for metabolic stability to degradation by intestinal peptidases using the BBMV assay described above. The linear CCR2b(61-67) peptide was used as a control.

[2] = target: T1, CCR2 (Homo sapiens, UniProt P41597); experiment: transwell migration assay with MCP-1 as chemoattractant (THP-1 cells); type: cell-based
T1 construct: endogenous in cells; host or cells: THP-1
T1 sequence (P41597 1-360 isoform P41597-2): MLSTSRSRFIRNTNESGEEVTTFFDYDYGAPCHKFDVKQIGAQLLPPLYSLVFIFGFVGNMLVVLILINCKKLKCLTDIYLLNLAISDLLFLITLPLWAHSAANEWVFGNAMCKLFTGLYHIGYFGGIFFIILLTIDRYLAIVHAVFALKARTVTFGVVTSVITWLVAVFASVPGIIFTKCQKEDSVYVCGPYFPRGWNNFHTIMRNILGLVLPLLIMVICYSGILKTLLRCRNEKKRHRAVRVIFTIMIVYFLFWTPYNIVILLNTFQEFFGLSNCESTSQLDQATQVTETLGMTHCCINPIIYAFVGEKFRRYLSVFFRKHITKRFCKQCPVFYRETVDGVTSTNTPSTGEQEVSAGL
Description: A transwell migration assay (Bignold, L. P., J Immunol Methods 1987, 105, (2), 275-80) was performed using MCP-1 as a chemoattractant. The chemokine MCP-1 reacts only with the chemokine receptors CCR2 and CCR4. […] In this experiment, THP-1 cells were placed in the upper well of the trans-migration plate and specific migration was induced by placing MCP-1 in the lower well. The cells were allowed to migrate spontaneously or toward the chemokine, and counted after migration. To evaluate the effect of hCCR2b(61-67) on MCP-1-induced migration, the peptide (10 μM) was incubated with the cells and the number of migrating cells in the lower wells were determined.
(§1) The simple transwell migration assay (Mandelboim, O. Protocol Exchange (2006) doi:10.1038/nprot.2006.210) was used for evaluating the chemotactic migration in the presence of M3D-1. M3D-1 inhibited THP-1 cells migration towards MCP-1 (FIG. 7 stripes).

[3] = target: T2, CXCR4 (Homo sapiens, UniProt P61073); experiment: transwell migration assay, SDF-1 (CXCL12) induced migration; type: cell-based; details: cells migrating towards SDF-1; FIG. 7 crosshatch
T2 construct: endogenous in cells; host or cells: THP-1 (inferred; b171 says only 'cells')
Description: as §1
SDF-1 is known to have strong chemotactic effects following specific interaction with the receptor CXCR4 (Bleul et al., ibid).

[4] = tested on: THP-1 cells; experiment: spontaneous migration of THP-1 cells without additional chemokines; type: cell-based, human; details: FIG. 7 dots
Description: THP-1 cells spontaneous migration was evaluated without additional chemokines.

[5] = tested on: cells; experiment: in vitro cytotoxicity assay; type: cell-based

T2 sequence (P61073 whole entry): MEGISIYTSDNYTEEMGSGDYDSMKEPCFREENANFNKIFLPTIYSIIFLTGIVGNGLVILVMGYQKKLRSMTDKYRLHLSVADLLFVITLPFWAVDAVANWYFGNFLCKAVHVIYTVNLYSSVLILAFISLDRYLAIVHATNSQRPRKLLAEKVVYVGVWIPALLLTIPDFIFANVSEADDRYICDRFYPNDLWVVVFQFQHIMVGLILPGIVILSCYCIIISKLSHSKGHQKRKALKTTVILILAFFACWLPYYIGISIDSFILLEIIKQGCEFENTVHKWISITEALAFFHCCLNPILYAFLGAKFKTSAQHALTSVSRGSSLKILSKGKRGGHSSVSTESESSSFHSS

## CC[C@H](C)[C@H](NC(=O)[C@H](CC(C)C)NC(=O)[C@@H](NC(=O)[C@@H](NC(=O)[C@H](CC(C)C)NC(=O)[C@@H](N)CCSC)C(C)C)C(C)C)C(=O)N[C@@H](CC(C)C)C(=O)O [hCCR2b(61-67), MLVVLIL] (H-MLVVLIL-OH; N-terminus and C-terminus assumed)
[1]; FIG. 9, linear control peptide
  degradation by intestinal peptidases: completed degraded after about one hour

## M-L-V-BU-L-I-BU-NH2 (MLV[BU]LI[BU]-NH2; bridge 4-7 via CO; reading uncertain; also: printed as M-L-V-BU-L-I-BU-NH2) [M3D-1]
[2]; THP-1 cells migrating towards MCP-1, concentration not given, FIG. 2 / FIG. 7
  inhibition of MCP-1-mediated migration: inhibited
[2]; summary statement in the description
  concentration range blocking specific CCR2 chemokine mediated cell migration: low micro-molar range
[3]
  inhibition of SDF-1 induced migration: no significant inhibition
[4]
  number of cells that migrate in the absence of chemokine, with or without peptide: no significant difference
[5]
  toxicity to cells: not toxic to cells
[1]; FIG. 9
  time stable to degradation by intestinal peptidases: at least 3 hours
